# Where two headings read alike, the source gives them in different places.
# T1: RAD51 (purified) (UniProt Q06609 1-339)
# T1 sequence (looked up): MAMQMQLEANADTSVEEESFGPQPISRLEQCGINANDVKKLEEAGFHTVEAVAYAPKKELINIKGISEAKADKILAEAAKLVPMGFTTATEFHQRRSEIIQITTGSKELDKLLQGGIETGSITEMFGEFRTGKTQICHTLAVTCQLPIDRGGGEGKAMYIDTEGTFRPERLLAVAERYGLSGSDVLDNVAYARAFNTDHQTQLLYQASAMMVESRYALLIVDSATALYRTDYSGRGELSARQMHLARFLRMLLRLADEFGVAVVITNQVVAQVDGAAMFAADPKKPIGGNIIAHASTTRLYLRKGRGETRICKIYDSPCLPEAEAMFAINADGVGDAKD
# How the values were obtained:
# [1] = molecular target: T1, RAD51 (purified); experiment: pull-down
# [2] = molecular target: T1, RAD51 (purified); experiment: pull-down; remark: listed apart in the source
binding result [1],binding result [2],Binder
binds,,"2XMBP-BRC1–4-DBD (domain or fragment, human) WAGLLGPISNHSFGGSFRTASNKEIKLSEHNIKKSKMFFKDIEEQYPTSLACVEIVNTLALDNQKKLSKPQSINTVSAHLQSSVVVSDCKNSHITPQMLFSKQDFNSNHNLTPSQKAEITELSTILEESGSQFEFTQFRKPSYILQKSTFEVPENQMTILKTTSEECRDADLHVIMNAPSIGQVDSSKQFEGTVEIKRKFAGLLKNDCNKSASGYLTDENEVGFRGFYSAHGTKLNVSTEALQKAVKLFSDIENISEETSAEVHPISLSSSKCHDSVVSMFKIENHNDKTVSEKNNKCQLILQNNIEMTTGTFVEEITENYKRNTENEDNKYTAASRNSHNLEFDGSDSSKNDTVCIHKDETDLLFTDQHNICLKLSGQFMKEGNTQIKEDLSDLTFLEVAKAQEACHGNTSNKEQLTATKTEQNIKDFETSDTFFQTASGKNISVAKESFNKIVNFFDQKPEELHNFSLNSELHSDIRKNKMDILSYEETDIVKHKILKESVPVGTGNQLVTFQGQPERDEKIKEPTLLGFHTASGKKVKIAKESLDKVKNLFDEKEQGTSEITSFSHQWAKTLKYREACKDLELACETIEITAAPGGGSPYLSQFQQDKQQLVLGTKVSLVENIHVLGKEQASPKNVKMEIGKTETFSDVPVKTNIEVCSTYSKDSENYFETEAVEIAKAFMEDDELTDSKLPSHATHSLFTCPENEEMVLSNSRIGKRRGEPLILVGEPSIKRNLLNEFDRIIENQEKSLKASKSTPDGTIKDRRLFMHHVSLEPITCVPFRTTKERQEIQNPNFTAPGQEFLSKSHLYEHLTLEKSSSNLAVSGHPFYQVSATRNEKMRHLITTGRPTKVFVPPFKTKSHFHRVEQCVRNINLEENRQKQNIDGHGSDDSKNKINDNEIHQFNKNNSNQAVAVTFTKCEEEPLDLITSLQNARDIQDMRIKKKQRQRVFPQPGSLYLAKTSTLPRISLKAAVGGQVPSACSHKQLYTYGVSKHCIKINSKNAESFQFHTEDYFGKESLWTGKGIQLADGGWLIPSNDGKAGKEEFYRALCDTPGVDPKLISRIWVYNHYRWIIWKLAAMECAFPKEFANRCLSPERVLLQLKYRYDTEIDRSRRSAIKKIMERDDTAAKTLVLCVSDIISLSANISETSSNKTSSADTQKVAIIELTDGWYAVKAQLDPPLLAVLKNGRLTVGQKIILHGAELVGSPDACTPLEAPESLMLKISANSTRPARWYTKLGFFPDPRPFPLPLSSLFSDGGNVGCVDVIIQRAYPIQWMEKTSSGLYIFRNEREEEKEAAKYVEAQQKRLEALFTKIQEEFEEHEENTTKPYLPSRALTRQQVRALQDGAELYEAVKNAADPAYLEGYFSEEQLRALNNHRQMLNDKKQAQIQLEIRKAMESAEQKEQGLSRDVTTVWKLRIVSYSKKEKDSVILSIWRPSSDLYSLLTEGKRYRIYHLATSKSKSKSERANIQLAATKKTQYQQLPVSDEILFQIYQPREPLHFSKFLDPDFQPSCSEVDLIGFVVSVVKKTGLAPFVYLSDECYNLLAIKFWIDLNEDIIKPHMLIAASNLQWRPESKSGLLTLFAGDFSVFSASPKEGHFQETFNKMKNTVENIDILCNEAENKLMHILHANDPKWSTPTKDCTSGPYTAQIIPGTGNKLLMSSPNCEIYYQSPLSLCMAKRKSVSTPVSAQMTSKSCKGEKEIDDQKNCKKRRALDFLSRLPLPPPVSPICTFVSPAAQKAFQPPRSCGTKYETPIKKKELNSPQMTPFKKFNEISLLESNSIADEELALINTQALLSGSTGEKQFISVSESTRTAPTSSEDYLRLKRRCTTSLIKEQESSQASTEECEKNKQDTITTKKYI"
,binds,"2XMBP-BRC4-DBD (domain or fragment, human) PVGTGNQLVTFQGQPERDEKIKEPTLLGFHTASGKKVKIAKESLDKVKNLFDEKEQGTSEITSFSHQWAKTLKYREACKDLELACETIEITAAPGGGSPYLSQFQQDKQQLVLGTKVSLVENIHVLGKEQASPKNVKMEIGKTETFSDVPVKTNIEVCSTYSKDSENYFETEAVEIAKAFMEDDELTDSKLPSHATHSLFTCPENEEMVLSNSRIGKRRGEPLILVGEPSIKRNLLNEFDRIIENQEKSLKASKSTPDGTIKDRRLFMHHVSLEPITCVPFRTTKERQEIQNPNFTAPGQEFLSKSHLYEHLTLEKSSSNLAVSGHPFYQVSATRNEKMRHLITTGRPTKVFVPPFKTKSHFHRVEQCVRNINLEENRQKQNIDGHGSDDSKNKINDNEIHQFNKNNSNQAVAVTFTKCEEEPLDLITSLQNARDIQDMRIKKKQRQRVFPQPGSLYLAKTSTLPRISLKAAVGGQVPSACSHKQLYTYGVSKHCIKINSKNAESFQFHTEDYFGKESLWTGKGIQLADGGWLIPSNDGKAGKEEFYRALCDTPGVDPKLISRIWVYNHYRWIIWKLAAMECAFPKEFANRCLSPERVLLQLKYRYDTEIDRSRRSAIKKIMERDDTAAKTLVLCVSDIISLSANISETSSNKTSSADTQKVAIIELTDGWYAVKAQLDPPLLAVLKNGRLTVGQKIILHGAELVGSPDACTPLEAPESLMLKISANSTRPARWYTKLGFFPDPRPFPLPLSSLFSDGGNVGCVDVIIQRAYPIQWMEKTSSGLYIFRNEREEEKEAAKYVEAQQKRLEALFTKIQEEFEEHEENTTKPYLPSRALTRQQVRALQDGAELYEAVKNAADPAYLEGYFSEEQLRALNNHRQMLNDKKQAQIQLEIRKAMESAEQKEQGLSRDVTTVWKLRIVSYSKKEKDSVILSIWRPSSDLYSLLTEGKRYRIYHLATSKSKSKSERANIQLAATKKTQYQQLPVSDEILFQIYQPREPLHFSKFLDPDFQPSCSEVDLIGFVVSVVKKTGLAPFVYLSDECYNLLAIKFWIDLNEDIIKPHMLIAASNLQWRPESKSGLLTLFAGDFSVFSASPKEGHFQETFNKMKNTVENIDILCNEAENKLMHILHANDPKWSTPTKDCTSGPYTAQIIPGTGNKLLMSSPNCEIYYQSPLSLCMAKRKSVSTPVSAQMTSKSCKGEKEIDDQKNCKKRRALDFLSRLPLPPPVSPICTFVSPAAQKAFQPPRSCGTKYETPIKKKELNSPQMTPFKKFNEISLLESNSIADEELALINTQALLSGSTGEKQFISVSESTRTAPTSSEDYLRLKRRCTTSLIKEQESSQASTEECEKNKQDTITTKKYI"
